The values below come from patent US11278600B2, “Human alpha-galactosidase variants” (Codexis, Inc., priority 2014, dated 2022).

Positions count from the first letter of the chain named.

Assay type in all cases: biochemical
A short description of data set [1]: HTP-analysis of yeast culture supernatants, no challenge (MUGal hydrolysis). Particulars: activity of the variant/activity of Rd2BB (SEQ ID NO: 10), yeast culture supernatant. The gist of the method:
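GLA variants were expressed in INVSc1 yeast grown in SD-Ura broth with glucose at 30° C., and culture supernatants were collected after 66-84 h. Supernatant was mixed with McIlvaine buffer pH 4.8 and MUGal (2 mM stock) in 50 mM citrate, 200 mM KCl, pH 4.6, incubated at 37° C. for 30-180 minutes, then quenched with sodium carbonate.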

A short description of data set [2]: HTP-analysis of supernatants pretreated with acid (MUGal hydrolysis). Conditions: challenge at pH 4.2; activity of the variant/activity of Rd2BB (SEQ ID NO: 10); yeast culture supernatant. The gist of the method:
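Supernatants from INVSc1 yeast secreting GLA variants were challenged at 37° C. for 1-3 h in McIlvaine buffer at pH 3.3-4.3. Residual activity was then measured on 4 mM MUGal substrate stock at pH 4.8 with citrate buffer pH 4.3, over 30-180 min at 37° C. Reactions were quenched with sodium carbonate and read by fluorescence (Ex 355/Em 448 nm).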

Data set [3] in a line: HTP-analysis of supernatants pretreated with base (MUGal hydrolysis). Conditions: challenge at pH 7.6; activity of the variant/activity of Rd2BB (SEQ ID NO: 10); yeast culture supernatant. The gist of the method:
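Fluorescence of released 4-MU (Ex 355 nm, Em 448 nm) after carbonate quench reports MUGal hydrolysis by GLA variants secreted from INVSc1 yeast. Before the acidic (pH 4.3-4.8) 30-180 min reaction at 37° C, supernatants had been pre-incubated at pH 7.0-9.7 for 1-18 h at 37° C.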

Data set [4] in a line: HTP-analysis of supernatants pretreated with bovine serum (MUGal hydrolysis). Particulars: activity of the variant/activity of Rd2BB (SEQ ID NO: 10), yeast culture supernatant. The gist of the method:
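Yeast INVSc1 culture supernatants containing secreted GLA variants were mixed with bovine serum (20:80) and held 1 h at 37° C. Serum-treated samples then reacted with MUGal (4 mM stock) in citrate/McIlvaine buffer (pH 4.3/4.8) for 180 min at 37° C., were quenched with sodium carbonate, and read by fluorescence (Ex 355, Em 448 nm).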

B1: 289 (protein)
chain: LDNGLARTPTMGWLHWERFMCNLDCQEEPDSCISEKLFMEMAERMVSEGWKDAGYEYLCIDDCWMAPQRDSEGRLQADPQRFPHGIRQLANYVHSIGLKLGIYADVGNKTCAGFPGSFGYYDIDAQTFADWGVDLLKFDGCYCDSLENLADGYKHMSLALNRTGRSIVYSCEWPLYMWPFQKPNYTEIRQYCNHWRNFADIDDSWASIKSILDWTSRNQERIVDVAGPGGWNDPDMLVIGNFGLSWNQQVTQMALWAIMAAPLFMSNDLRHISPQAKALLQDKDVIAINQDPLGKQGYQLRKGDNFEVWERPLSGLAWAVAMINRQEIGGPRSYTIAVASLGKGVACNPGCFITQLLPVKRKLGFYEWTSRLRSHINPTGTVLLQLENTMQMSLKDLL
modifications: Synthetic Polypeptide sequence of Variant No. 289 of mature Human GLA
Regarding B1, in data set [1], the “Relative Activity of GLA Variants After No Challenge (NC)” value is reported as “+ (+ = 0.5 to 1.5 relative activity over Rd2BB (SEQ ID NO: 10))”. In addition, the “Relative Activity of GLA Variants After Challenge at pH 4.2” value (from here on “Relative Activity … at pH 4.2”) in data set [2] is reported as “++ (++ = 1.5 to 2.5 relative activity over Rd2BB (SEQ ID NO: 10))”. For the same molecule, the “Relative Activity of GLA Variants After Challenge at pH 7.6” value (from here on “Relative Activity … at pH 7.6”) in data set [3] is reported as “++ (++ = 1.5 to 2.5 relative activity over Rd2BB (SEQ ID NO: 10))”. The “Relative Activity of GLA Variants After Challenge with Serum” value (from here on “Relative Activity … with Serum”) in data set [4] is “++ (++ = 1.5 to 2.5 relative activity over Rd2BB (SEQ ID NO: 10))”.

B2: 290 (protein)
chain: B1 chain with R217F, N247D, K302Q, L316D, A337P, E367D, T369D
modifications: Synthetic Polypeptide sequence of Variant No. 290 of mature Human GLA
For B2, in data set [1], the “Relative Activity of GLA Variants After No Challenge (NC)” value is given as “+++ (+++ = >2.5 relative activity over Rd2BB (SEQ ID NO: 10))”. In addition, the “Relative Activity … at pH 4.2” value in data set [2] was “+++ (+++ = >2.5 relative activity over Rd2BB (SEQ ID NO: 10))”. The “Relative Activity … at pH 7.6” value in data set [3] is given as “+++ (+++ = >2.5 relative activity over Rd2BB (SEQ ID NO: 10))”. The “Relative Activity … with Serum” value in data set [4] is reported as “+++ (+++ = >2.5 relative activity over Rd2BB (SEQ ID NO: 10))”.

B3: 293 (protein)
chain: B1 chain with I96K, L100F, I208V, R217F, R221K, N247D, M322V, G350A, F365L, I376V
modifications: Synthetic Polypeptide sequence of Variant No. 293 of mature Human GLA
Turning to B3, in data set [1], the “Relative Activity of GLA Variants After No Challenge (NC)” value was “++ (++ = 1.5 to 2.5 relative activity over Rd2BB (SEQ ID NO: 10))”. Further, the “Relative Activity … at pH 4.2” value in data set [2] was “+ (+ = 0.5 to 1.5 relative activity over Rd2BB (SEQ ID NO: 10))”. Besides, in data set [3], the “Relative Activity … at pH 7.6” value is “++ (++ = 1.5 to 2.5 relative activity over Rd2BB (SEQ ID NO: 10))”. Moreover, in data set [4], the “Relative Activity … with Serum” value is recorded as “+ (+ = 0.5 to 1.5 relative activity over Rd2BB (SEQ ID NO: 10))”.

B4: 235 (protein)
chain: B1 chain with R44L, I96K, N247D, L316D, A337P, E367D, T369D
modifications: Synthetic Polypeptide sequence of Variant No. 235 of mature Human GLA
For the molecule B4, the “Relative Activity of GLA Variants After No Challenge (NC)” value in data set [1] is on record as “+++ (+++ = >2.5 relative activity over Rd2BB (SEQ ID NO: 10))”. The “Relative Activity … at pH 4.2” value in data set [2] is on record as “+++ (+++ = >2.5 relative activity over Rd2BB (SEQ ID NO: 10))”. For the same molecule, the “Relative Activity … at pH 7.6” value in data set [3] is “+++ (+++ = >2.5 relative activity over Rd2BB (SEQ ID NO: 10))”. Also, in data set [4], the “Relative Activity … with Serum” value is on record as “+++ (+++ = >2.5 relative activity over Rd2BB (SEQ ID NO: 10))”.

B5: 236 (protein)
chain: B1 chain with R44L, I96K, G350A, E367D, T369D
modifications: Synthetic Polypeptide sequence of Variant No. 236 of mature Human GLA
Take B5: the “Relative Activity of GLA Variants After No Challenge (NC)” value in data set [1] is recorded as “+++ (+++ = >2.5 relative activity over Rd2BB (SEQ ID NO: 10))”. In data set [2], the “Relative Activity … at pH 4.2” value is “++ (++ = 1.5 to 2.5 relative activity over Rd2BB (SEQ ID NO: 10))”. Besides, the “Relative Activity … at pH 7.6” value in data set [3] is recorded as “+++ (+++ = >2.5 relative activity over Rd2BB (SEQ ID NO: 10))”. The “Relative Activity … with Serum” value in data set [4] is “++ (++ = 1.5 to 2.5 relative activity over Rd2BB (SEQ ID NO: 10))”.

B6: 294 (protein)
chain: B1 chain with I96K, L100F, I208V, R217F, R221T, N247D, K302Q, M322V, G350A, I376V
modifications: Synthetic Polypeptide sequence of Variant No. 294 of mature Human GLA
Take B6: the “Relative Activity of GLA Variants After No Challenge (NC)” value in data set [1] is “++ (++ = 1.5 to 2.5 relative activity over Rd2BB (SEQ ID NO: 10))”. For the same molecule, the “Relative Activity … at pH 4.2” value in data set [2] is “++ (++ = 1.5 to 2.5 relative activity over Rd2BB (SEQ ID NO: 10))”. Also, the “Relative Activity … at pH 7.6” value in data set [3] was “+++ (+++ = >2.5 relative activity over Rd2BB (SEQ ID NO: 10))”. For the same molecule, the “Relative Activity … with Serum” value in data set [4] is reported as “+ (+ = 0.5 to 1.5 relative activity over Rd2BB (SEQ ID NO: 10))”.

B7: 291 (protein)
chain: B1 chain with I96K, L100F, R217F, K302Q, G350A, F365L
modifications: Synthetic Polypeptide sequence of Variant No. 291 of mature Human GLA
On to B7, for which, in data set [1], the “Relative Activity of GLA Variants After No Challenge (NC)” value is given as “+ (+ = 0.5 to 1.5 relative activity over Rd2BB (SEQ ID NO: 10))”. Moreover, the “Relative Activity … at pH 4.2” value in data set [2] is “+ (+ = 0.5 to 1.5 relative activity over Rd2BB (SEQ ID NO: 10))”. Further, in data set [3], the “Relative Activity … at pH 7.6” value is on record as “+ (+ = 0.5 to 1.5 relative activity over Rd2BB (SEQ ID NO: 10))”. Besides, in data set [4], the “Relative Activity … with Serum” value was “+ (+ = 0.5 to 1.5 relative activity over Rd2BB (SEQ ID NO: 10))”.

B8: 233 (protein)
chain: B1 chain with R44L, I96K, N247D, K302Q, L316D, E367D, T369D
modifications: Synthetic Polypeptide sequence of Variant No. 233 of mature Human GLA
For the molecule B8, the “Relative Activity of GLA Variants After No Challenge (NC)” value in data set [1] was “+++ (+++ = >2.5 relative activity over Rd2BB (SEQ ID NO: 10))”. Further, the “Relative Activity … at pH 4.2” value in data set [2] is “+++ (+++ = >2.5 relative activity over Rd2BB (SEQ ID NO: 10))”. Besides, the “Relative Activity … at pH 7.6” value in data set [3] is given as “+++ (+++ = >2.5 relative activity over Rd2BB (SEQ ID NO: 10))”. Further, the “Relative Activity … with Serum” value in data set [4] is “+++ (+++ = >2.5 relative activity over Rd2BB (SEQ ID NO: 10))”.

B9: 292 (protein)
chain: B1 chain with I96K, L100F, I208V, R217F, Q219H, N247D, M322V, G350A, R373K, I376V
modifications: Synthetic Polypeptide sequence of Variant No. 292 of mature Human GLA
B9: the “Relative Activity of GLA Variants After No Challenge (NC)” value in data set [1] is “+++ (+++ = >2.5 relative activity over Rd2BB (SEQ ID NO: 10))”. The “Relative Activity … at pH 4.2” value in data set [2] is on record as “++ (++ = 1.5 to 2.5 relative activity over Rd2BB (SEQ ID NO: 10))”. The “Relative Activity … at pH 7.6” value in data set [3] was “+++ (+++ = >2.5 relative activity over Rd2BB (SEQ ID NO: 10))”. The “Relative Activity … with Serum” value in data set [4] was “++ (++ = 1.5 to 2.5 relative activity over Rd2BB (SEQ ID NO: 10))”.

B10: 234 (protein)
chain: B1 chain with R44L, I96K, N247D, E367D, T369D
modifications: Synthetic Polypeptide sequence of Variant No. 234 of mature Human GLA
B10: the “Relative Activity of GLA Variants After No Challenge (NC)” value in data set [1] is reported as “+++ (+++ = >2.5 relative activity over Rd2BB (SEQ ID NO: 10))”. The “Relative Activity … at pH 4.2” value in data set [2] is “+++ (+++ = >2.5 relative activity over Rd2BB (SEQ ID NO: 10))”. The “Relative Activity … at pH 7.6” value in data set [3] is given as “+++ (+++ = >2.5 relative activity over Rd2BB (SEQ ID NO: 10))”. Moreover, the “Relative Activity … with Serum” value in data set [4] was “+++ (+++ = >2.5 relative activity over Rd2BB (SEQ ID NO: 10))”.

B11: 295 (protein)
chain: LDNGLARTPTMGWLHWERFMCNLDCQEEPDSCISEKLFMEMAERMVSEGWKDAGYEYLCIDDCWMAPQRDSEGRLQADPQRFPHGIRQLANYVHSKGLKFGIYADVGNKTCAGFPGSFGYYDIDAQTFADWGVDLLKFDGCYCDSLENLADGYKHMSLALNRTGRSIVYSCEWPLYMWPFQKPNYTEIRQYCNHWRNFADIDDSWASVKSILDWTSFNQETIVDVAGPGGWNDPDMLVIGNFGLSWDQQVTQMALWAIMAAPLFMSNDLRHISPQAKALLQDKDVIAINQDPLGKQGYQLRKGDNFEVWERPLSGLAWAVAIINRQEIGGPRSYTIAVASLGKGVACNPACFITQLLPVKRKLGLYEWTSRLKSHVNPTGTVLLQLENTMQMSLKDLL
modifications: Synthetic Polypeptide sequence of Variant No. 295 of mature Human GLA
Regarding B11, in data set [1], the “Relative Activity of GLA Variants After No Challenge (NC)” value is “+++ (+++ = >2.5 relative activity over Rd2BB (SEQ ID NO: 10))”. Besides, the “Relative Activity … at pH 4.2” value in data set [2] is listed as “+++ (+++ = >2.5 relative activity over Rd2BB (SEQ ID NO: 10))”. The “Relative Activity … at pH 7.6” value in data set [3] is “+++ (+++ = >2.5 relative activity over Rd2BB (SEQ ID NO: 10))”. Moreover, the “Relative Activity … with Serum” value in data set [4] is given as “+++ (+++ = >2.5 relative activity over Rd2BB (SEQ ID NO: 10))”.
